Data from article PMC4711005, “LRRK2 phosphorylates pre-synaptic N-ethylmaleimide sensitive fusion (NSF) protein enhancing its ATPase activity and SNARE complex disassembling rate” (Molecular Neurodegeneration, 2016).
Where a chain is given by its changes, count along the chain named. Numbers in names are those of the source.

Molecular target: the molecule itself
Assay: negative-stain transmission electron microscopy; purified NSF incubated with 1 mM ATP and 2 mM MgCl2, adsorbed to carbon-coated grids, stained with 1 % uranyl acetate

B1: Flag-NSF full-length (human, aa 1-744) (enzyme, UniProt P46459 1-744, looked up)
chain: MAGRSMQAARCPTDELSLTNCAVVNEKDFQSGQHVIVRTSPNHRYTFTLKTHPSVVPGSIAFSLPQRKWAGLSIGQEIEVSLYTFDKAKQCIGTMTIEIDFLQKKSIDSNPYDTDKMAAEFIQQFNNQAFSVGQQLVFSFNEKLFGLLVKDIEAMDPSILKGEPATGKRQKIEVGLVVGNSQVAFEKAENSSLNLIGKAKTKENRQSIINPDWNFEKMGIGGLDKEFSDIFRRAFASRVFPPEIVEQMGCKHVKGILLYGPPGCGKTLLARQIGKMLNAREPKVVNGPEILNKYVGESEANIRKLFADAEEEQRRLGANSGLHIIIFDEIDAICKQRGSMAGSTGVHDTVVNQLLSKIDGVEQLNNILVIGMTNRPDLIDEALLRPGRLEVKMEIGLPDEKGRLQILHIHTARMRGHQLLSADVDIKELAVETKNFSGAELEGLVRAAQSTAMNRHIKASTKVEVDMEKAESLQVTRGDFLASLENDIKPAFGTNQEDYASYIMNGIIKWGDPVTRVLDDGELLVQQTKNSDRTPLVSVLLEGPPHSGKTALAAKIAEESNFPFIKICSPDKMIGFSETAKCQAMKKIFDDAYKSQLSCVVVDDIERLLDYVPIGPRFSNLVLQALLVLLKKAPPQGRKLLIIGTTSRKDVLQEMEMLNAFSTTIHVPNIATGEQLLEALELLGNFKDKERTTIAQQVKGKKVWIGIKKLLMLIEMSLQMDPEYRVRKFLALLREEGASPLDFD
notes: N-ethylmaleimide sensitive fusion protein (NSF), human, full-length, aa 1-744; Cloned into the p3XFLAG-CMV-7.1 vector; also called 3xFlag-NSF wt; NSF wild-type; source: kept on the resin or eluted with 3xFlag peptide; also in HEK293T lysate; not shown: Flag, N-terminal, kept
stoichiometry N: 6

B2: NSF T645A (enzyme, human, UniProt P46459 1-744, looked up)
chain: B1 chain with T645A
notes: NSF, human, phospho-deficient mutant T645A of the NSF wild-type construct (full-length aa 1-744), made by QuickChange mutagenesis; source: HEK293T, expressed and purified
stoichiometry N: 6
